Our source for the ECL signal values is patent US20120058906A1 (published 2012).

In test [1] the target is T1, rHuman IGF-1 sR, CF (R&D Systems Cat#391-GR) (human, UniProt P08069 31-932).
T1 construct: Bought soluble receptor; also called insulin-like growth factor-1 soluble receptor; IGF-R1
Kind of test: ECL (MSD Multi-Spot) binding, antigen spotted on plate; Fab 5 nM.

The target in test [2] is T2, rHuman P-Cadherin/Fc Chimera, CF (R&D Systems Cat#861-PC) (human, UniProt P22223 108-654).
T2 construct: Bought Fc chimera; Fc part of the bought chimera not given
Described as above.

For test [3], the target named is T3, rHuman Erythropoietin R/Fc Chimera, CF (R&D Systems Cat#963-ER) (human, UniProt P19235 25-250).
T3 construct: Bought Fc chimera; also called EPO R/Fc; erythropoietin receptor; Fc part of the bought chimera not given
T3 sequence: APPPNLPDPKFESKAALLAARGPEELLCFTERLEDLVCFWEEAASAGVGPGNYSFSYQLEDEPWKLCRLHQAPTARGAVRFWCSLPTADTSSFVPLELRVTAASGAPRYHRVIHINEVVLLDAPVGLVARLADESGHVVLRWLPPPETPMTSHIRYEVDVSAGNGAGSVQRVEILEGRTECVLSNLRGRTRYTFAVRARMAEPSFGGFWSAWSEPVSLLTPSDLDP
The test is described as above.

Test [4] concerns the target T4, rHuman HGF R/c-MET/Fc Chimera, CF (R&D Systems Cat#358-MT/CF) (human, UniProt P08581 25-932).
T4 construct: Bought Fc chimera; also called HGF R/Fc; hepatocyte growth factor receptor; Fc part of the bought chimera not given
The test is described as above.

For test [5], the target named is T5, rHuman Notch-1/Fc Chimera, CF (R&D Systems Cat#3647-TK) (human, UniProt P46531 19-526).
T5 construct: Bought Fc chimera; Fc part of the bought chimera not given
Nature of the test: ECL (MSD Multi-Spot) binding assay, antigen spotted on plate; Fab 30 nM; blank spot 213.

In test [6] the target is T6, rHuman CD44/Fc Chimera, CF (R&D Systems Cat#3660-CD) (human, UniProt P16070 21-220).
T6 construct: Bought Fc chimera; Fc part of the bought chimera not given
Described as above.

Test [7] has as its target T7, rHuman Erythropoietin R/Fc Chimera, CF (R&D Systems Cat#963-ER) (human, UniProt P19235 25-250).
T7 construct: Bought Fc chimera; also called EPO R/Fc; Epo R; Fc part of the bought chimera not given
T7 sequence: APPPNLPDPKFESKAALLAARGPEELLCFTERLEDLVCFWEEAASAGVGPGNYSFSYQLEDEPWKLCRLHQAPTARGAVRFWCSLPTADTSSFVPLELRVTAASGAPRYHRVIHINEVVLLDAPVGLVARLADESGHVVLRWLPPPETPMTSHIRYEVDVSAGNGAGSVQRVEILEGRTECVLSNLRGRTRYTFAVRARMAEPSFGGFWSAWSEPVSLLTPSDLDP
Kind of test: ECL (MSD Multi-Spot) binding assay, antigen spotted on plate; Fab 3.8 nM; blank spot 198.

For test [8], the target named is T8, Recombinant Human DLL4 (R&D Systems Cat#1506-D4/CF) (human, UniProt Q9NR61 27-524).
T8 construct: Bought recombinant protein; also called delta-like protein 4; rHuman DLL4
Described as above.

For test [9], the target named is T5, rHuman Notch-1/Fc Chimera, CF (R&D …). The description is as above.
Test [10] has as its target T6, rHuman CD44/Fc Chimera, CF (R&D Systems …). Described as above.
Test [11] concerns the target T9, rHuman P-Cadherin/Fc Chimera, CF (R&D Systems Cat#861-PC) (human, UniProt P22223 108-654).
T9 construct: Bought Fc chimera; also called CDH3; Fc part of the bought chimera not given
Described as above.

For test [12], the target named is T10, rHuman IGF-1 sR, (IGF-1 sR), CF (R&D Systems Cat#391-GR) (human, UniProt P08069 31-932).
T10 construct: also called insulin-like growth factor-1 soluble receptor; IGF-R1
Nature of the test: MSD ECL multi-spot plate; Fab 8.1 nM; blank spot 435.

Test [13] concerns the target T11, rHuman Erythropoietin R/Fc Chimera, CF (R&D Systems Cat#963-ER) (human, UniProt P19235 25-250).
T11 construct: also called EPO R/Fc; Epo R; Fc part of the bought chimera not given
T11 sequence: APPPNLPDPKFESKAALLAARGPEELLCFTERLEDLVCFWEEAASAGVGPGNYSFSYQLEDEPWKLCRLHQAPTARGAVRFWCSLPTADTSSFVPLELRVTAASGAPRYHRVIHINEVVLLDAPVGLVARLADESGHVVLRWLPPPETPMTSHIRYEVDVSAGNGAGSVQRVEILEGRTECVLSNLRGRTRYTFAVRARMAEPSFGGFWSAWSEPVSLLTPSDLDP
The test is described as above.

The target of test [14] is T12, Recombinant Human DLL4 (R&D Systems Cat#1506-D4/CF) (human, UniProt Q9NR61 27-524).
T12 construct: also called delta-like protein 4
The test is described as above.

In test [15] the target is T13, rHuman ErbB2/Fc Chimera, CF (R&D Systems Cat#1129-ER) (human, UniProt P04626 23-652).
T13 construct: also called HER2/neu; human epidermal growth factor 2 receptor; Fc part of the bought chimera not given
The description is as above.

Test [16] concerns the target T14, rHuman EGF R/Fc Chimera, CF (R&D Systems Cat#344-ER) (human, UniProt P00533 25-645).
T14 construct: also called epidermal growth factor receptor; Fc part of the bought chimera not given
The test is described as above.

The target of test [17] is T15, rHuman HGF R/c-MET/Fc Chimera, CF (R&D Systems Cat#358-MT/CF) (human, UniProt P08581 25-932).
T15 construct: also called HGF R/Fc; hepatocyte growth factor receptor; Fc part of the bought chimera not given
Described as above.

For test [18], the target named is T16, rHuman Notch-1/Fc Chimera, CF (R&D Systems Cat#3647-TK) (human, UniProt P46531 19-526).
T16 construct: Fc part of the bought chimera not given
Described as above.

The target in test [19] is T17, rHuman CD44/Fc Chimera, CF (R&D Systems Cat#3660-CD) (human, UniProt P16070 21-220).
T17 construct: Fc part of the bought chimera not given
The test is described as above.
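Further: blank spot per well as comparator with Hit at signal to blank ratio of 4 or more.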

B1: Fab VH1-46_IGHD6-6*01_IGHJ1*01_S102A_S103P_S104F_H111Y & L6_IGKJ1*01 (Fab, V domains shown)
VH: QVQLVQSGAEVKKPGASVKVSCKASGYTFTSYYMHWVRQAPGQGLEWMGIINPSGGSTSYAQKFQGRVTMTRDTSTSTVYMELSSLRSEDTAVYYCAREEYAPFSAEYFQYWGQGTLVTVSS
VL: not shown
notes: Fab made in E. coli; The heavy chain also carries the CH1 with Flag and His tags of Plasmid A, and the light chain the kappa constant region of Plasmid C
As to B1, the ECL signal in test [1] is 320; in [2], 437; in [3], 377; in test [4], 323.

B2: Fab VH6-1_IGHD3-3*01_IGHJ4*01 & V4-3_IGLJ4*01 (Fab, V domains shown)
VH: QVQLQQSGPGLVKPSQTLSLTCAISGDSVSSNSAAWNWIRQSPSRGLEWLGRTYYRSKWYNDYAVSVKSRITINPDTSKNQFSLQLNSVTPEDTAVYYCAREYYDFWSGYYTDYFDYWGQGTLVTVSS
VL: QPVLTQPTSLSASPGASARLTCTLRSGINLGSYRIFWYQQKPESPPRYLLSYYSDSSKHQGSGVPSRFSGSKDASSNAGILVISGLQSEDEADYYCMIWHSSASFVFGGGTQLIIL
notes: Tested as a Fab made in E. coli; also called IGHV6-1*01
In the case of B2, the ECL signal was found to be 425 in [5]; 484 in [6]; 407 in test [7]; 462 in test [8]; 383 in [9]; 419 in test [10]. The same molecule displayed an ECL signal in test [11] of 281.

B3: Fab VH1-8_IGHD2-2*01_IGHJ6*01 & L12_IGKJ1*01 (Fab, V domains shown)
VH: QVQLVQSGAEVKKPGASVKVSCKASGYTFTSYDINWVRQATGQGLEWMGWMNPNSGNTGYAQKFQGRVTMTRNTSISTAYMELSSLRSEDTAVYYCARGGYCSSTSCYADYYYYYGMDVWGQGTTVTVSS
VL: not shown
Take B3: the ECL signal in test [12] was found to be 518 ECL signal; in test [13], 660 ECL signal; in test [14] it was 1550 ECL signal; in [15] it was 557 ECL signal; in test [16], 560 ECL signal; in test [17], 551 ECL signal. In addition, the ECL signal was found to be 612 ECL signal in test [18] and 528 ECL signal in test [19].
